Article PMC6498860 (Cell, 2019)

Target: histone H4 (Xenopus laevis, UniProt P62799 2-103)
Assay: cryo-EM structure

B1: Dot1L(2-416) (domain or fragment)
chain: GEKLELRLKSPVGAEPAVYPWPLPVYDKHHDAAHEIIETIRWVCEEIPDLKLAMENYVLIDYDTKSFESMQRLCDKYNRAIDSIHQLWKGTTQPMKLNTRPSTGLLRHILQQVYNHSVTDPEKLNNYEPFSPEVYGETSFDLVAQMIDEIKMTDDDLFVDLGSGVGQVVLQVAAATNCKHHYGVEKADIPAKYAETMDREFRKWMKWYGKKHAEYTLERGDFLSEEWRERIANTSVIFVNNFAFGPEVDHQLKERFANMKEGGRIVSSKPFAPLNFRINSRNLSDIGTIMRVVELSPLKGSVSWTGKPVSYYLHTIDRTILENYFSSLKNPKLREEQEAARRRQQRESKSNAATPTKGPEGKVAGPADAPMDSGAEEEKAGAATVKKPSPSKARKKKLNKKGRKMAGRKRGRPKK
- binding result: binds
